Reference: patent CN110028578A

How the values were obtained:
[1] = biological target: A/Shanghai/2/2013 H7N9 HA extracellular domain 11-505 (H3 numbering) with C-terminal T4 trimerisatio (Influenza A virus A/Shanghai/2/2013 H7N9); assay: BLI, biotinylated HA on streptavidin probe, antibody in solution
[2] = biological target: A/Guangdong/17SF003/2016 H7N9 HA extracellular domain 11-505 (H3 numbering) with C-terminal T4 trime (Influenza A virus A/Guangdong/17SF003/2016 H7N9); assay: as above

B1: P52E03 IgG (antibody, V domains shown)
VH: QVQLVQSGGGLVQPGRSLRLSCAASGFTFDDYAMHWVRQAPGKGLEWVSGISWNSGSIGYADSVKGRFTISRDNAKNSLYLQMNSLRAEDTALYYCAKGLNSSGWYVYFDYWGQGTLVTVSS
VL: EIVLTQSPGTLSLSPGERATLSCRASQTVARNYLAWYQQKPGQAPRLLMYDPSSRPAGIPDRFSGSGSGTDFTLTISRLEPEDSAVYFCQQYGSPPLTFGGGTKIEIKR
For B1, the Kd [1] was 157 nM and the Kd [2] was 10.5 nM.
